Patent US20230357447A1 (JANUX THERAPEUTICS, published 2023)

Columns and labels:
[1] = molecular target: T1, Anti-CD28 scFv (VH-linker 1-VL) (biotinylated for capture on neutravidin plates); assay: phage ELISA, scFv captured on plate;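 also: crude clonal phage supernatants added to wells preincubated with soluble CD28 or with blocking buffer only, bound phage read out by HRP-linked anti-M13 antibody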
Method: (§1) Clonal phage were harvested as crude supernatants and screened via standard enzyme linked immunosorbent assays (ELISAs). […] Prior to the addition of clonal phage, wells were incubated with blocking buffer and CD28 soluble protein or blocking buffer alone. Without washing or aspirating, clonal phage supernatants were then added to the wells and incubated for a short time. Wells were then washed followed by detection of bound phage using a horse radish peroxidase conjugated anti-M13 antibody.

[2] = molecular target: T1, Anti-CD28 scFv (VH-linker 1-VL); assay: phage ELISA, scFv captured on plate, competitor soluble CD28;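 also: crude clonal phage supernatants added to wells pre-incubated with soluble CD28 or with blocking buffer only as control, bound phage read out with HRP-linked anti-M13 antibody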
Method: as §1

T1 sequence (scFv, as listed by the source): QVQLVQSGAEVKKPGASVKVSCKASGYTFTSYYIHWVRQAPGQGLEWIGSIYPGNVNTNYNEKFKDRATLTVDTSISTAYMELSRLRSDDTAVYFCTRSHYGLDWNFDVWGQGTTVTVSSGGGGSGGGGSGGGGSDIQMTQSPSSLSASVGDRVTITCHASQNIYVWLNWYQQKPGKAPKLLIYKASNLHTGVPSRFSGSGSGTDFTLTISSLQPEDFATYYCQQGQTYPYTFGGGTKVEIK

Binder: MDWCPRYLWHMCYS [Phage-119]
- Phage binding ELISA CD28 scFv signal [1]: 2.42
- Phage binding ELISA CD28 scFv signal in presence of CD28 [2]: 1.17

Binder: MDWCPKFLWHECFS [Phage-135]
- Phage binding ELISA CD28 scFv signal [1]: 2.28
- Phage binding ELISA CD28 scFv signal in presence of CD28 [2]: 0.142

Binder: MDWCPIHLWNECFA [Phage-123]
- Phage binding ELISA CD28 scFv signal [1]: 2.4
- Phage binding ELISA CD28 scFv signal in presence of CD28 [2]: 0.203

Binder: MDWCPTNLWHECFA [Phage-138]
- Phage binding ELISA CD28 scFv signal [1]: 2.16
- Phage binding ELISA CD28 scFv signal in presence of CD28 [2]: 0.096

Binder: MDWCPTYLWFECFN [Phage-132]
- Phage binding ELISA CD28 scFv signal [1]: 2.33
- Phage binding ELISA CD28 scFv signal in presence of CD28 [2]: 0.224

Binder: MDWCPSYLWTVCFA [Phage-129]
- Phage binding ELISA CD28 scFv signal [1]: 2.34
- Phage binding ELISA CD28 scFv signal in presence of CD28 [2]: 0.096

Binder: MDWCPVSLWHVCFY [Phage-125]
- Phage binding ELISA CD28 scFv signal [1]: 2.4
- Phage binding ELISA CD28 scFv signal in presence of CD28 [2]: 0.409

Binder: MDWCPRYLWDACFF [Phage-130]
- Phage binding ELISA CD28 scFv signal [1]: 2.34
- Phage binding ELISA CD28 scFv signal in presence of CD28 [2]: 0.168

Binder: MDWCPRDLWHACFS [Phage-120]
- Phage binding ELISA CD28 scFv signal [1]: 2.41
- Phage binding ELISA CD28 scFv signal in presence of CD28 [2]: 0.173

Binder: MDWCPMDLWDVCFN [Phage-140]
- Phage binding ELISA CD28 scFv signal [1]: 2.15
- Phage binding ELISA CD28 scFv signal in presence of CD28 [2]: 0.263

Binder: MDWCPRYLWFECFS [Phage-117]
- Phage binding ELISA CD28 scFv signal [1]: 2.46
- Phage binding ELISA CD28 scFv signal in presence of CD28 [2]: 0.235

Binder: MDWCPRFLWNECFN [Phage-126]
- Phage binding ELISA CD28 scFv signal [1]: 2.4
- Phage binding ELISA CD28 scFv signal in presence of CD28 [2]: 0.503

Binder: MDWCPRYLWHECFH [Phage-137]
- Phage binding ELISA CD28 scFv signal [1]: 2.19
- Phage binding ELISA CD28 scFv signal in presence of CD28 [2]: 0.308

Binder: MDWCPRDLWDQCYA [Phage-122]
- Phage binding ELISA CD28 scFv signal [1]: 2.41
- Phage binding ELISA CD28 scFv signal in presence of CD28 [2]: 0.201

Binder: MHWCPIYLWDECFN [Phage-136]
- Phage binding ELISA CD28 scFv signal [1]: 2.23
- Phage binding ELISA CD28 scFv signal in presence of CD28 [2]: 0.193

Binder: MHWCPRYLWDECFN [Phage-180]
- Phage binding ELISA CD28 scFv signal [1]: 0.55
- Phage binding ELISA CD28 scFv signal in presence of CD28 [2]: 0.127

Binder: MDWCPRALWNECFA [Phage-127]
- Phage binding ELISA CD28 scFv signal [1]: 2.38
- Phage binding ELISA CD28 scFv signal in presence of CD28 [2]: 0.375

Binder: MDWCPRDLWHVCFF [Phage-121]
- Phage binding ELISA CD28 scFv signal [1]: 2.41
- Phage binding ELISA CD28 scFv signal in presence of CD28 [2]: 0.268

Binder: LDWCPRDLWHVCFF [Phage-178]
- Phage binding ELISA CD28 scFv signal [1]: 0.61
- Phage binding ELISA CD28 scFv signal in presence of CD28 [2]: 0.105

Binder: MDWCPRNMWTVCFL [Phage-211]
- Phage binding ELISA CD28 scFv signal [1]: 1.12

Binder: MDWCPRDLWIECFF [Phage-128]
- Phage binding ELISA CD28 scFv signal [1]: 2.37
- Phage binding ELISA CD28 scFv signal in presence of CD28 [2]: 0.137

Binder: MDWCPSYLWHECFA [Phage-134]
- Phage binding ELISA CD28 scFv signal [1]: 2.28
- Phage binding ELISA CD28 scFv signal in presence of CD28 [2]: 0.198

Binder: MDWCPRDLWNVCFA [Phage-154]
- Phage binding ELISA CD28 scFv signal [1]: 1.38
- Phage binding ELISA CD28 scFv signal in presence of CD28 [2]: 0.145

Binder: MDWCPRDLWAVCFA [Phage-149]
- Phage binding ELISA CD28 scFv signal [1]: 1.67
- Phage binding ELISA CD28 scFv signal in presence of CD28 [2]: 0.089

Binder: MDWCPRDLWNVCFN [Phage-169]
- Phage binding ELISA CD28 scFv signal [1]: 0.74
- Phage binding ELISA CD28 scFv signal in presence of CD28 [2]: 0.108

Binder: MDWCPRDLWDVCFA [Phage-139]
- Phage binding ELISA CD28 scFv signal [1]: 2.16
- Phage binding ELISA CD28 scFv signal in presence of CD28 [2]: 0.28

Binder: MDWCPRPLWDMCFF [Phage-124]
- Phage binding ELISA CD28 scFv signal [1]: 2.4
- Phage binding ELISA CD28 scFv signal in presence of CD28 [2]: 0.138

Binder: MDWCPRHLWDECFF [Phage-118]
- Phage binding ELISA CD28 scFv signal [1]: 2.46
- Phage binding ELISA CD28 scFv signal in presence of CD28 [2]: 0.663

Binder: MDWCPRHLWDQCFA [Phage-161]
- Phage binding ELISA CD28 scFv signal [1]: 1.12
- Phage binding ELISA CD28 scFv signal in presence of CD28 [2]: 0.144

Binder: MDWCPRFLWDECFF [Phage-133]
- Phage binding ELISA CD28 scFv signal [1]: 2.28
- Phage binding ELISA CD28 scFv signal in presence of CD28 [2]: 0.246

Binder: MDWCPRHLWDLCFF [Phage-153]
- Phage binding ELISA CD28 scFv signal [1]: 1.4
- Phage binding ELISA CD28 scFv signal in presence of CD28 [2]: 0.182

Binder: MDWCPRHLWDLCFA [Phage-166]
- Phage binding ELISA CD28 scFv signal [1]: 0.925
- Phage binding ELISA CD28 scFv signal in presence of CD28 [2]: 0.096

Binder: MDWCPRSLWIYCFN [Phage-131]
- Phage binding ELISA CD28 scFv signal [1]: 2.34
- Phage binding ELISA CD28 scFv signal in presence of CD28 [2]: 0.401
